B1: glycerol kinase Saci_2033 (enzyme, Sulfolobus acidocaldarius DSM 639, UniProt Q4J7A3 1-497, looked up)
chain: MAEKYVIAIDEGTTSARAIVFDKELNILGIGQNEFTQYYPQPGYVEHSPEEIWQAQLLAINKALEKAKIDRNNILSIGITNQRETTVMWDTRTGKPIYNAIVWQDRRTAPITDYLKANYLRLIKDRTGLVPDPYFSASKIKWILDNIPNAREKAEKGEIKFGTIDTYLIWKLTNGKAHVTDYSNASRTMLFNIRKLEWDREILEILNIPEAILPDVKPSSEIYGYAEILNSSIPISGDAGDQQAALFGQIAFNQGDVKCTYGTGSFILLNTGSNLVSSNDLLTTIAWGVGKGITYALEGSIFITGAAVQWFRDGLRAIDVSDEIEPLAGSVPDNGGVYFVPAFTGLGAPYWDPYARGLIIGITRGTTKAHIARAILESMAYQTMDVLGIMQRDSGIKIDALKVDGGASKNDLLMQFQADILKMKVVRPKIMETTSMGVAMLAGLSVGYWNSMDELKQKWKIDQVFEPKMDDEYREKLYSGWKEAVRRALGWAKTIGG
B2: glycerol kinase Saci_1117 (enzyme, Sulfolobus acidocaldarius DSM 639, UniProt Q4J9R1 1-498, looked up)
chain: MSKYILAVDEGTTSARALVFDEDLNVISIAQTELTQYFPRPGYVEQNPEEIFEKQVSMIKKAVEKAKIEISQVSAIGIANQRETTIMWDSRSGRPVYNAVVWQDRRTSDITDWLKSNYLNLFKSKTGLIPDPYFSASKIKWILDNVPGVREKAERGEIKFGTVDTYLIWKLTNGKVHVTDYSNASRTMLFNIKKLEWDRDILEILEIPEAILPEVRSSSEVYGYAEPVGNIPISGDAGDQQAALFGQLGFSKGDVKCTYGTGSFILMNSGEEIYDSKDLLTTIAWKIGKDVKYALEGSIFTTGAAVQWVRDGLGLVSSSDEIESLASSVVDNGGVYFVPAFSGLGSPYWDPYARGLIIGISRGTSRGHIARAVLESIAYQVRDVIEVIKKDVGKEFVNVLKVDGGVSKNNLLMQFQADILGIRIVRPRVIETTSMGASMLAGLAVDYWSSLEELKSKWAVDREFIPSLQEDRRERLYKGWKEAVRRTIGWAREVETME
B3: glycerol-3-phosphate dehydrogenase Saci_1118, N-terminally His-tagged (enzyme, Sulfolobus acidocaldarius DSM 639, UniProt Q4J9Q8 1-428, looked up)
chain: MKQNSSVIVIGGGATGLFTALDLSLRGINVTLVERGDIASGTSGKFHGLLHSGARYAVNDPESAKECKQENEVLSKIAPEFVRDTGGVFVGITEDDVNYSQRFLSALNSLGITNKVMDVEELIRREPFINKKSKIAIWVPDKVVYGYDLLATVALTASLNGAKILTYNEVKRVLREGNSVRRVEVKDNISGETKILNGDIIVNTAGPWAFRVIEMAGLGEIPLLPTAGIMVVMKEKLNSMVINRLRPPSDGDIIVPYGDSSIIGTTATIIPDPDNFEISDEDINMLIEEGAYMIPRLKEVKPERAYASVRPLIKNAEDGRGATRDFMIIDHEKVDSLDGLISVIGGKFTTSRLAGEKVSDMVSEKLGIREKSKTATIKLMSELDEKLLEKKRVPKVLVKMIRERKGSLDEDRYSTAMYILLSLLARGE
B4: glycerol-3-phosphate dehydrogenase Saci_2032, N-terminally His-tagged (enzyme, Sulfolobus acidocaldarius DSM 639, UniProt Q4J7A2 1-431, looked up)
chain: MEIKTSVLVIGGGANGLFTALDLALRGIDVTLVERRDIGSGTSGRFHGLLHSGARYAVTDPESAKECIQENNIISKIAPHAIRDTGGLFLGITKEDLEFLDKFLSSLKKLGIEHKIVDNNQVLQEEPYVNKDLKIAIWVPDKVVYGYDLLSSIAVTGSLNKARIMTYNEVTEFIRDGNSIKGVKVFDKITNQMNLIKSDIIINTSGPWAFKIITMAGLEEIPILPTAGIMAVFGKKVNNAVLNRLRPPSDGDIIVPYQDTSILGTTATIIEDPDNFTISDEDVKMLIKEGSQLVPELSKTRVIRTYASVRPLMRTSEDGRKASRDFTILDHEREDGVSGLISIIGGKFTTSRLVGEKVGDLVSEKLGVRAKSKTKETKLISPSEIDFEKYLEKIGISKIFLKSVMERRGSLDEERYKTVLYLLLSLIARGR

Target: the molecule itself
Experiment: SEC

Stoichiometry N, 2:
B1
B2
B3
B4
